Measurements: the supplement of paper PMC5998384

What was measured:
[1] = system: HeLa Kyoto; assay: solubility change mitosis vs G1/S (difference of NP-40 vs SDS log2 ratios) (log2 ratio difference); higher = more soluble in mitosis
[2] = system: HeLa Kyoto; assay: solubility in G1/S (NP-40 vs SDS abundance) (log2 ratio); higher = more soluble; settings: cell cycle stage: G1/S
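For solubility change mitosis vs G1/S (difference of NP-40 vs SDS log2 ratios) in this document: synchronized HeLa Kyoto cells (double thymidine block for G1/S, nocodazole release for mitosis), protein amounts in NP-40 versus SDS lysates quantified by mass spectrometry, three biological replicates.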
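For solubility in G1/S (NP-40 vs SDS abundance) in this document: HeLa Kyoto cells arrested at G1/S by double thymidine block, proteins quantified by TMT10plex mass spectrometry in mild NP-40 versus SDS extracts, three biological replicates.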

| Sequence | solubility change mitosis (log2) [1] | solubility in G1/S (log2) [2] |
| --- | --- | --- |
| MAEAATPGTTATTSGAGAAAATAAAASPTPIPTVTAPSLGAGGGGGGSDGSGGGWTKQVTCRYFMHGVCKEGDNCRYSHDLSDSPYSVVCKYFQRGYCIYGDRCRYEHSKPLKQEEATATELTTKSSLAASSSLSSIVGPLVEMNTGEAESRNSNFATVGAGSEDWVNAIEFVPGQPYCGRTAPSCTEAPLQGSVTKEESEKEQTAVETKKQLCPYAAVGECRYGENCVYLHGDSCDMCGLQVLHPMDAAQRSQHIKSCIEAHEKDMELSFAVQRSKDMVCGICMEVVYEKANPSERRFGILSNCNHTYCLKCIRKWRSAKQFESKIIKSCPECRITSNFVIPSEYWVEEKEEKQKLILKYKEAMSNKACRYFDEGRGSCPFGGNCFYKHAYPDGRREEPQRQKVGTSSRYRAQRRNHFWELIEERENSNPFDNDEEEVVTFELGEMLLMLLAAGGDDELTDSEDEWDLFHDELEDFYDLDL [MKRN1] | -0.322 | 0.102 |
| MAEAGAGLSETVTETTVTVTTEPENRSLTIKLRKRKPEKKVEWTSDTVDNEHMGRRSSKCCCIYEKPRAFGESSTESDEEEEEGCGHTHCVRGHRKGRRRATLGPTPTTPPQPPDPSQPPPGPMQH [PPP1R11] | 0.00513 | -0.804 |
| MAEASFGSSSPVGSLSSEDHDFDPTAEMLVHDYDDERTLEEEEMMDEGKNFSSEIEDLEKEGTMPLEDLLAFYGYEPTIPAVANSSANSSPSELADELPDMTLDKEEIAKDLLSGDDEETQSSADDLTPSVTSHETSDFFPRPLRSNTACDGDKESEVEDVETDSGNSPEDLRKEIMIGLQYQAEIPPYLGEYDGNEKVYENEDQLLWCPDVVLESKVKEYLVETSLRTGSEKIMDRISAGTHTRDNEQALYELLKCNHNIKEAIERYCCNGKASQEGMTAWTEEECRSFEHALMLFGKDFHLIQKNKVRTRTVAECVAFYYMWKKSERYDYFAQQTRFGKKRYNHHPGVTDYMDRLVDETEALGGTVNASALTSNRPEPIPDQQLNILNSFTASDLTALTNSVATVCDPTDVNCLDDSFPPLGNTPRGQVNHVPVVTEELLTLPSNGESDCFNLFETGFYHSELNPMNMCSEESERPAKRLKMGIAVPESFMNEVSVNNLGVDFENHTHHITSAKMAVSVADFGSLSANETNGFISAHALHQHAALHSE [MIER3] | -0.33 | 0.163 |
| MAEASSLGRQSPRVVSCLEHSLCPGEPGLQTTAVVSMGSGDHQFNLAEILSQNYSVRGECEEASRCPDKPKEELEKDFISQSNDMPFDELLALYGYEASDPISDRESEGGDVAPNLPDMTLDKEQIAKDLLSGEEEEETQSSADDLTPSVTSHEASDLFPNRSGSRFLADEDREPGSSASSDTEEDSLPANKCKKEIMVGPQFQADLSNLHLNRHCEKIYENEDQLLWDPSVLPEREVEEFLYRAVKRRWHEMAGPQLPEGEAVKDSEQALYELVKCNFNVEEALRRLRFNVKVIRDGLCAWSEEECRNFEHGFRVHGKNFHLIQANKVRTRSVGECVEYYYLWKKSERYDYFAQQTRLGRRKYVPSGTTDADQDLDGSDPDGPGRPRPEQDTLTGMRTDPLSVDGTAGGLDEPGVASDGLPSSEPGPCSFQQLDESPAVPLSHRPPALADPASYQPAVTAPEPDASPRLAVDFALPKELPLISSHVDLSGDPEETVAPAQVALSVTEFGLIGIGDVNPFLAAHPTCPAPGLHSEPLSHCNVMTC [MIER2] | -0.304 | 0.172 |
| MAEGPEEARGHPPGQDDGGGDHEPVPSLRGPPTTAVPCPRDDPQAEPQAPGRPTAPGLAAAAAADKLEPPRELRKRGEAASGSGAELQEQAGCEAPEAAAPRERPARLSAREYSRQVHEWLWQSYCGYLTWHSGLAAFPAYCSPQPSPQSFPSGGAAVPQAAAPPPPQLGYYNPFYFLSPGAAGPDPRTAAGISTPAPVAGLGPRAPHVQASVRATPVTRVGSAAPSRSPSETGRQAGREYVIPSLAHRFMAEMVDFFILFFIKATIVLSIMHLSGIKDISKFAMHYIIEEIDEDTSMEDLQKMMVVALIYRLLVCFYEIICIWGAGGATPGKFLLGLRVVTCDTSVLIAPSRVLVIPSSNVSITTSTIRALIKNFSIASFFPAFITLLFFQHNRTAYDIVAGTIVVKRNGVR [FAM8A1] | 0.0402 | -0.0476 |
| MAENLKGCSVCCKSSWNQLQDLCRLAKLSCPALGISKRNLYDFEVEYLCDYKKIREQEYYLVKWRGYPDSESTWEPRQNLKCVRILKQFHKDLERELLRRHHRSKTPRHLDPSLANYLVQKAKQRRALRRWEQELNAKRSHLGRITVENEVDLDGPPRAFVYINEYRVGEGITLNQVAVGCECQDCLWAPTGGCCPGASLHKFAYNDQGQVRLRAGLPIYECNSRCRCGYDCPNRVVQKGIRYDLCIFRTDDGRGWGVRTLEKIRKNSFVMEYVGEIITSEEAERRGQIYDRQGATYLFDLDYVEDVYTVDAAYYGNISHFVNHSCDPNLQVYNVFIDNLDERLPRIAFFATRTIRAGEELTFDYNMQVDPVDMESTRMDSNFGLAGLPGSPKKRVRIECKCGTESCRKYLF [SUV39H1] | -0.415 | -0.773 |
| MAEPSQAPTPAPAAQPRPLQSPAPAPTPTPAPSPASAPIPTPTPAPAPAPAAAPAGSTGTGGPGVGSGGAGSGGDPARPGLSQQQRASQRKAQVRGLPRAKKLEKLGVFSACKANETCKCNGWKNPKPPTAPRMDLQQPAANLSELCRSCEHPLADHVSHLENVSEDEINRLLGMVVDVENLFMSVHKEEDTDTKQVYFYLFKLLRKCILQMTRPVVEGSLGSPPFEKPNIEQGVLNFVQYKFSHLAPRERQTMFELSKMFLLCLNYWKLETPAQFRQRSQAEDVATYKVNYTRWLCYCHVPQSCDSLPRYETTHVFGRSLLRSIFTVTRRQLLEKFRVEKDKLVPEKRTLILTHFPKFLSMLEEEIYGANSPIWESGFTMPPSEGTQLVPRPASVSAAVVPSTPIFSPSMGGGSNSSLSLDSAGAEPMPGEKRTLPENLTLEDAKRLRVMGDIPMELVNEVMLTITDPAAMLGPETSLLSANAARDETARLEERRGIIEFHVIGNSLTPKANRRVLLWLVGLQNVFSHQLPRMPKEYIARLVFDPKHKTLALIKDGRVIGGICFRMFPTQGFTEIVFCAVTSNEQVKGYGTHLMNHLKEYHIKHNILYFLTYADEYAIGYFKKQGFSKDIKVPKSRYLGYIKDYEGATLMECELNPRIPYTELSHIIKKQKEIIKKLIERKQAQIRKVYPGLSCFKEGVRQIPVESVPGIRETGWKPLGKEKGKELKDPDQLYTTLKNLLAQIKSHPSAWPFMEPVKKSEAPDYYEVIRFPIDLKTMTERLRSRYYVTRKLFVADLQRVIANCREYNPPDSEYCRCASALEKFFYFKLKEGGLIDK [KAT2A] | -0.058 | 0.0904 |
| MAETSPEPSGQLVVHSDAHSDTVLASFEDQRKKGFLCDITLIVENVHFRAHKALLAASSEYFSMMFAEEGEIGQSIYMLEGMVADTFGILLEFIYTGYLHASEKSTEQILATAQFLKVYDLVKAYTDFQNNHSSPKPTTLNTAGAPVVVISNKKNDPPKRKRGRPKKVNTLQEEKSELAAEEEIQLRVNNSVQNRQNFVVKGDSGVLNEQIAAKEKEESEPTCEPSREEEMPVEKDENYDPKTEDGQASQSRYSKRRIWRSVKLKDYKLVGDQEDHGSAKRICGRRKRPGGPEARCKDCGKVFKYNHFLAIHQRSHTGERPFKCNECGKGFAQKHSLQVHTRMHTGERPYTCTVCSKALTTKHSLLEHMSLHSGQKSFTCDQCGKYFSQNRQLKSHYRVHTGHSLPECKDCHRKFMDVSQLKKHLRTHTGEKPFTCEICGKSFTAKSSLQTHIRIHRGEKPYSCGICGKSFSDSSAKRRHCILHTGKKPFSCPECNLQFARLDNLKAHLKIHSKEKHASDASSISGSSNTEEVRNILQLQPYQLSTSGEQEIQLLVTDSVHNINFMPGPSQGISIVTAESSQNMTADQAANLTLLTQQPEQLQNLILSAQQEQTEHIQSLNMIESQMGPSQTEPVHVITLSKETLEHLHAHQEQTEELHLATSTSDPAQHLQLTQEPGPPPPTHHVPQPTPLGQEQS [ZBTB24] | 0.142 | -0.495 |
| MAGAGRGAAVSRVQAGPGSPRRARGRQQVQPLGKQRPAPWPGLRSKEKKKVNCKPKNQDEQEIPFRLREIMRSRQEMKNPISNKKRKKAAQVTFRKTLEKEAKGEEPDIAVPKFKQRKGESDGAYIHRMQQEAQHVLFLSKNQAIRQPEVQAAPKEKSEQKKAKKAFQKRRLDKVRRKKEEKAADRLEQELLRDTVKFGEVVLQPPELTARPQRSVSKDQPGRRSQMLRMLLSPGGVSQPLTASLARQRIVEEERERAVQAYRALKQRQQQLHGERPHLTSRKKPEPQL [CCDC137] | 0.83 | -1.04 |
| MAGALVRKAADYVRSKDFRDYLMSTHFWGPVANWGLPIAAINDMKKSPEIISGRMTFALCCYSLTFMRFAYKVQPRNWLLFACHATNEVAQLIQGGRLIKHEMTKTASA [MPC1] | -0.165 | -0.461 |
| MAGGPGPGEPAAPGAQHFLYEVPPWVMCRFYKVMDALEPADWCQFAALIVRDQTELRLCERSGQRTASVLWPWINRNARVADLVHILTHLQLLRARDIITAWHPPAPLPSPGTTAPRPSSIPAPAEAEAWSPRKLPSSASTFLSPAFPGSQTHSGPELGLVPSPASLWPPPPSPAPSSTKPGPESSVSLLQGARPFPFCWPLCEISRGTHNFSEELKIGEGGFGCVYRAVMRNTVYAVKRLKENADLEWTAVKQSFLTEVEQLSRFRHPNIVDFAGYCAQNGFYCLVYGFLPNGSLEDRLHCQTQACPPLSWPQRLDILLGTARAIQFLHQDSPSLIHGDIKSSNVLLDERLTPKLGDFGLARFSRFAGSSPSQSSMVARTQTVRGTLAYLPEEYIKTGRLAVDTDTFSFGVVVLETLAGQRAVKTHGARTKYLKDLVEEEAEEAGVALRSTQSTLQAGLAADAWAAPIAMQIYKKHLDPRPGPCPPELGLGLGQLACCCLHRRAKRRPPMTQVYERLEKLQAVVAGVPGHSEAASCIPPSPQENSYVSSTGRAHSGAAPWQPLAAPSGASAQAAEQLQRGPNQPVESDESLGGLSAALRSWHLTPSCPLDPAPLREAGCPQGDTAGESSWGSGPGSRPTAVEGLALGSSASSSSEPPQIIINPARQKMVQKLALYEDGALDSLQLLSSSSLPGLGLEQDRQGPEESDEFQS [IRAK1] | 0.07 | 0.247 |
